In patent US20050215467A1 (published 2005):

Experiments:
[1] = target: T1, LCAT (purified from human plasma) (human, UniProt P04180 25-440); test: cell-based or functional assay
T1 sequence (looked up): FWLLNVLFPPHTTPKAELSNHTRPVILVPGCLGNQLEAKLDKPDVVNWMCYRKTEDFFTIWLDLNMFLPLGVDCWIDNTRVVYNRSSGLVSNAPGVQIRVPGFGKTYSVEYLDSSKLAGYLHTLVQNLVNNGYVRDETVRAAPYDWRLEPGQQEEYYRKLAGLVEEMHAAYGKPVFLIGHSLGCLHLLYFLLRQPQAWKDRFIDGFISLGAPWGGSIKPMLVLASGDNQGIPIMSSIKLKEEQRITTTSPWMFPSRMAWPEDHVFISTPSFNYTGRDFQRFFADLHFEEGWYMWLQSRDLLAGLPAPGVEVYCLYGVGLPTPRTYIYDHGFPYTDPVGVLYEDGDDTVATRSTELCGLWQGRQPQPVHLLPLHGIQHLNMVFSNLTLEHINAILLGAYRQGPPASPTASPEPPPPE

[2] = target: the molecule itself; test: tryptophan fluorescence emission maximum (332 nm), peptide free in buffer; self-association

B1: peptide 9 (peptide)
peptide: PVLDLFRELGNELLEALKQKLK
[1]
  ACTIVITY (%) LCAT: 63%

B2: peptide 15 (peptide)
peptide: PVLDLFRELWNELLEALKQKLK
notes: peptide 4 containing a Trp residue at position 10
[2]
  binding result: binds
